We go through five molecules from patent publication US12030929B2, “Fusobacterium nucleatum amyloid-like FadA for diagnosis and treatment of Fn-mediated pathogenesis” (The Trustees of Columbia University in the City of New York, priority 2021, dated 2024).

The test system of data set [1] is Fn binding to human CRC cells DLD1. Nature of the data set: Cell culture attachment assay, DLD1. In kind it is cell-based. The note with it: 50 μg FadAc pre-incubated with DLD1 for 45 min.
A short description of data set [2]: Thioflavin-T binding assay. The note with it: 10 μM Thioflavin-T; for Thioflavin-T binding in the presence of 0.1% SDS: FadA proteins 0.8 mg/ml; for Thioflavin-T binding: without SDS, 10 min. On the procedure: (§1) FIG. 2A-2G. Pre-FadA as a key component of amyloid-like FadA. 2A. Single-letter amino acid (aa) sequence of FadA (SEQ ID NO:28). The intact pre-FadA consists of 129 aa, with the first 18-aa (top row) constitute the signal peptide. The remaining 111 aa constitute mFadA. The residues that are replaced in the mutant proteins used in this study are shown in red. 2B. Analysis of detergent resistant recombinant FadA polymers expressed in E. coli. An aliquot of 50 μg detergent-resistant pellets prepared from E. coli BL21(DE3) carrying the cloning vector pET21(b), pYWH417-6 (p_FadAc), or pYWH418 (p_mFadA) were analyzed by SDD-AGE, followed by Western blot analysis. FadA polymers were only detected in E. coli expressing FadAc, but not in mFadA or the vector control. 2C. Reactivity of recombinant FadA and its variants with anti-amyloid fibril antibody OC. A total of 10 μg each of recombinant protein mFadA, FadAc, FadA-L-9A, FadA-L14A, FadA-S71A, and FadA-L76A purified from E. coli was slot-blotted onto nitrocellulose and incubated with polyclonal OC antibody at 1:5,000 dilution. Amyloid-like recombinant Rim4 (Berchowitz et al., 2015) was used as a positive control and histone H1 was used as a negative control. Ponceau stain (pink color) is shown as a loading control. 2D. Thioflavin-T binding assay. FadA proteins at indicated concentrations were incubated with 10 μM Thioflavin-T at room temperature for 10 min. The fluorescent intensity was measured at excitation wavelength of 440 nm and emission wavelength of 500 nm. The experiment was performed in duplicate and repeated three times. *p<0.05, **p<0.01, ***p<0.001 (compared to BSA, t-test). 2E. Thioflavin-T binding assay in the presence of 0.1% SDS. FadA proteins (0.8 mg/ml) were incubated with 10 μM Thioflavin-T at room temperature for 10 min. The fluorescent intensity was measured at excitation wavelength of 440 nm and emission wavelength of 500 nm. The experiment was performed in duplicate and repeated three times. *p<0.05, **p<0.01 (compared to BSA, t-test). 2F. Western blot analysis of Fn12230 (Fn), fadA-deletion mutant US1 (ΔfadA) and spontaneous mutant lam following SDS-PAGE. A total of 400 μl of each culture grown to OD600 of 1.0 was pelleted and loaded onto 12% SDS-PAGE. FadA protein was detected using anti-FadA mAb 7H7 at 1:4,000 dilution. […] 2G. Analysis of amyloid-like FadA produced by Fn 23726 and its Δfap2 mutant. An aliquot of 50 μg detergent-resistant pellets was loaded onto each lane, followed by SDD-AGE and Western blot analysis as described above.
Thioflavin-T binding assay. Thioflavin-T assay was conducted as previously described (Tukel et al., 2009). A mixture of 50 μl of FadA proteins and 50 μl of 10 μM Thioflavin-T was added to a black 96-well plate and incubated for 10 min at room temperature. After incubation, the fluorescence intensity was determined using a SpectraMax M5 microplate reader at excitation wavelength of 440 nm and emission wavelength of 500 nm. For SDS stability test, the FadA proteins were pre-incubated in 0.1% SDS for 30 min at room temperature, followed by Thioflavin-T binding assay as described above.

Data set [3] is described as follows: Circular dichroism (CD) test. The class given is physicochemical. The note with it: wavelength range 190-250 nm; 0.2 mg/ml protein. On the procedure:
Circular dichroism (CD) test. CD was used to evaluate the secondary structure of FadA and its mutants. One hundred microliter of 0.2 mg/ml purified FadA was analyzed by Chirascan V100 Spectrometer using a 1 mm path-length fused quartz cell. The measurements are an average of three scans for each sample, captured at a scan rate of 1 sec., bandwidth and step size of 1 nm, over a wavelength range of 190-250 nm. CD spectra were recorded and analyzed with BestSel server (see www at bestsel.elte.hu/).
(In general: Circular dichroism is widely used to follow secondary structure.)

For data set [4], the system named is anti-amyloid oligomer antibody A11. Description: Slot blot assay with anti-amyloid oligomer antibody A11. In kind it is binding. The note with it: 10 μg recombinant protein; A11 at 1:5,000 dilution. On the procedure: FIG. 8A-8C. 8A. SDS-PAGE analysis of recombinant FadAc and its variants. The proteins were purified as previously described (Xu et al., 2007). Approximately 2.5 μg of each purified protein were loaded onto 12% SDS-PAGE. Following electrophoresis, the gel was stained with Coomassie Blue G-250. 8B. Reactivities of recombinant FadA and its variants with anti-amyloid oligomer antibody A11. A total of 10 μg each of recombinant protein mFadA, FadAc, FadA-L-9A, FadA-L14A, FadA-S71A, and FadA-L76A purified from E. coli was slot-blotted onto nitrocellulose and incubated with polyclonal anti-amyloid oligomer antibody A11 at 1:5,000 dilution. Amyloid-like recombinant Rim4 (Berchowitz et al., 2015) was used as a positive control and histone H1 was used as a negative control. Ponceau stain (pink color) is shown as a loading control. 8C. Western blot analysis of wild-type Fn 23726 (1) and mutants Δfap2 (2) using anti-FadA mAb 7H7. The bottom panel is Coomassie blue stain for loading control.
(§2) Slot blot assay. Ten micrograms each of purified recombinant protein was slot-blotted onto nitrocellulose membrane (BioRad) and assayed for reactivity with polyclonal anti-amyloid fibril antibodies OC (α-amyloid fibril OC, Sigma-Aldrich CAT #AB2286) at 1:5,000 dilution and goat-anti-rabbit IgG (GE Healthcare) at 1:10,000 dilution, or polyclonal anti-amyloid oligomer antibody A11 (α-oligomer A11 at 1:5,000 dilution, ThermoFisher Scientific CAT #AHB0052) and goat-anti-rabbit IgG at 1:10,000 dilution, followed by detection with ECL Prime (GE Healthcare). Amyloid-like recombinant Rim4 was used as a positive control (Berchowitz et al., 2015) and histone H1 was used as a negative control. Loading was assessed by Ponceau stain (Sigma CAT #P7170).

Data set [5] is described as follows: SDD-AGE and Western blot of detergent-resistant polymers. The class given is physicochemical. The note with it: expressed in E. coli; SDD-AGE, Western blot with mAb 7H7. On the procedure:
FIG. 2A-2G. Pre-FadA as a key component of amyloid-like FadA. 2A. Single-letter amino acid (aa) sequence of FadA (SEQ ID NO:28). The intact pre-FadA consists of 129 aa, with the first 18-aa (top row) constitute the signal peptide. The remaining 111 aa constitute mFadA. The residues that are replaced in the mutant proteins used in this study are shown in red. 2B. Analysis of detergent resistant recombinant FadA polymers expressed in E. coli. An aliquot of 50 μg detergent-resistant pellets prepared from E. coli BL21(DE3) carrying the cloning vector pET21(b), pYWH417-6 (p_FadAc), or pYWH418 (p_mFadA) were analyzed by SDD-AGE, followed by Western blot analysis. FadA polymers were only detected in E. coli expressing FadAc, but not in mFadA or the vector control. 2C. Reactivity of recombinant FadA and its variants with anti-amyloid fibril antibody OC. A total of 10 μg each of recombinant protein mFadA, FadAc, FadA-L-9A, FadA-L14A, FadA-S71A, and FadA-L76A purified from E. coli was slot-blotted onto nitrocellulose and incubated with polyclonal OC antibody at 1:5,000 dilution. […] The fluorescent intensity was measured at excitation wavelength of 440 nm and emission wavelength of 500 nm. […] The fluorescent intensity was measured at excitation wavelength of 440 nm and emission wavelength of 500 nm. […] FadA protein was detected using anti-FadA mAb 7H7 at 1:4,000 dilution. […]
Background: Immunoblotting shows a protein as a band on a membrane.

Data set [6] concerns HCT116 xenograft tumors. The note with it: shown previously (Rubinstein et al., 2013); cited from earlier work.
For data set [7], the system named is anti-amyloid fibril antibody OC. Description: Slot blot assay with anti-amyloid fibril antibody OC. The note with it: 10 μg recombinant protein; OC at 1:5,000 dilution. In kind it is binding. On the procedure:
as §1, §2

B1: FadAc: recombinant active heterogeneous complex of pre-FadA and mFadA (protein)
chain 1: MKKFLLLAVLAVSASAFAATDAASLVGELQALDAEYQNLANQEEARFNEERAQADAARQALAQNEQVYNELSQRAQRLQAEANTRFYKSQYQELASKYEDALKKLEAEMEQQKAVISDFEKIQALRAGN
chain 2: ATDAASLVGELQALDAEYQNLANQEEARFNEERAQADAARQALAQNEQVYNELSQRAQRLQAEANTRFYKSQYQELASKYEDALKKLEAEMEQQKAVISDFEKIQALRAGN
With B1, the “inhibition of Fn binding to DLD1” value in data set [1] was “effectively inhibited”. Further, the “Thioflavin-T binding in the presence of 0.1% SDS” value in data set [2] was “bound Thioflavin-T”. In addition, in data set [3], the “α helix (%)” value is 47.2% and the “β strand (%)” value was found to be 9.6%. In addition, the “reactivity with anti-amyloid oligomer antibody A11” value in data set [4] is “reacted”. Besides, the “formation of detergent-resistant polymers” value in data set [5] was “formed detergent-resistant polymers”. The “stimulation of xenograft tumor growth” value in data set [6] was “stimulated xenograft tumor growth”. In addition, the “reactivity with anti-amyloid fibril antibody OC” value in data set [7] is given as “reacted”.

B2: L76A (protein)
chain: ATDAASLVGELQALDAEYQNLANQEEARFNEERAQADAARQALAQNEQVYNELSQRAQRLQAEANTRFYKSQYQEAASKYEDALKKLEAEMEQQKAVISDFEKIQALRAGN
As for B2, in data set [4], the “reactivity with anti-amyloid oligomer antibody A11” value is “did not react”. In addition, the “reactivity with anti-amyloid fibril antibody OC” value in data set [7] is “did not react”.

B3: S71A (protein)
chain 1: MKKFLLLAVLAVSASAFAATDAASLVGELQALDAEYQNLANQEEARFNEERAQADAARQALAQNEQVYNELSQRAQRLQAEANTRFYKSQYQELASKYEDALKKLEAEMEQQKAVISDFEKIQALRAGN
chain 2: ATDAASLVGELQALDAEYQNLANQEEARFNEERAQADAARQALAQNEQVYNELSQRAQRLQAEANTRFYKAQYQELASKYEDALKKLEAEMEQQKAVISDFEKIQALRAGN
Take B3: the “Thioflavin-T binding in the presence of 0.1% SDS” value in data set [2] was “bound Thioflavin-T”. Further, in data set [3], the “α helix (%)” value stood at 49.1% and the “β strand (%)” value was 8%. Moreover, the “reactivity with anti-amyloid oligomer antibody A11” value in data set [4] is reported as “reacted”. In data set [7], the “reactivity with anti-amyloid fibril antibody OC” value is “reacted”.

B4: mFadA: cleaved mature form of FadA, 111 aa residues without the signal peptide (protein)
chain: ATDAASLVGELQALDAEYQNLANQEEARFNEERAQADAARQALAQNEQVYNELSQRAQRLQAEANTRFYKSQYQELASKYEDALKKLEAEMEQQKAVISDFEKIQALRAGN
With B4, in data set [2], the “Thioflavin-T binding in the presence of 0.1% SDS” value is “did not bind Thioflavin-T” and the Thioflavin-T binding result is reported as “bound more Thioflavin-T than FadAc”. Also, in data set [3], the “α helix (%)” value stood at 27.9% and the “β strand (%)” value came out at 18.8%. For the same molecule, the “reactivity with anti-amyloid oligomer antibody A11” value in data set [4] is “reacted weakly”. Moreover, the “formation of detergent-resistant polymers” value in data set [5] is given as “did not form polymers”. The “stimulation of xenograft tumor growth” value in data set [6] is “not”. The “reactivity with anti-amyloid fibril antibody OC” value in data set [7] is “not with the anti-fibril OC”.

B5: L14A (protein)
chain: ATDAASLVGELQAADAEYQNLANQEEARFNEERAQADAARQALAQNEQVYNELSQRAQRLQAEANTRFYKSQYQELASKYEDALKKLEAEMEQQKAVISDFEKIQALRAGN
As for B5, the Thioflavin-T binding result in data set [2] is given as “did not bind Thioflavin-T”. Moreover, in data set [3], the “α helix (%)” value turned out to be 44.2% and the “β strand (%)” value is 11.6%. Moreover, in data set [4], the “reactivity with anti-amyloid oligomer antibody A11” value is reported as “did not react”. The “reactivity with anti-amyloid fibril antibody OC” value in data set [7] is recorded as “did not react”.
